From patent US20050244333A1 (CITY OF HOPE, published 2005)

T1: carcinoembryonic antigen (CEA) (human, UniProt P06731 35-685, biotinylated with EZ-Link Sulfo-NHS-LC-Biotin for the SPR assay)
T1 construct: Purified CEA; biotinylated and immobilised on a streptavidin chip for SPR, unlabelled in the immunoreactivity assay; also called purified CEA; CEA-biotin
T1 sequence (looked up): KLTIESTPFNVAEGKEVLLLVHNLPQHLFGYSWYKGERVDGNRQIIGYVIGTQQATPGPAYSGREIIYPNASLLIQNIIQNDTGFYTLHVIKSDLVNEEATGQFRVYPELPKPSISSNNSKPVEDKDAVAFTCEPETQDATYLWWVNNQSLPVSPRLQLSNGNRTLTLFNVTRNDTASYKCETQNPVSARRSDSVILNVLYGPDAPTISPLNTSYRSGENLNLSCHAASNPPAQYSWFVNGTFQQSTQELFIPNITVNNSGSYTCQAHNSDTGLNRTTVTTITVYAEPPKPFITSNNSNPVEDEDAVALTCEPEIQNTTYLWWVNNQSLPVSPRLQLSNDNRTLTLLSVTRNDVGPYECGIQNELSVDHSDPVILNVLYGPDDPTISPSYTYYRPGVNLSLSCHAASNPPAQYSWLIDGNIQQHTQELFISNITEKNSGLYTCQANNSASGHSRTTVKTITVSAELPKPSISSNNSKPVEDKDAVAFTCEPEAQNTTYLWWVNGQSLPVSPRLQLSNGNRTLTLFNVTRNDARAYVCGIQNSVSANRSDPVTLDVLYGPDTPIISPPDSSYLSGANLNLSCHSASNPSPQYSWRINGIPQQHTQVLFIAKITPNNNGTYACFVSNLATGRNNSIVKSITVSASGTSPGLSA


How the values were obtained:
[1] = target: T1, carcinoembryonic antigen (CEA); assay: SPR, Biacore 1000; biotinylated CEA on SA chip, antibody injected at 3.12-100 nM, bivalent analyte model
Experimental: (§1) The binding affinity of the antibodies to purified CEA was determined by surface plasmon resonance (SPR) on a Biacore 1000 (Biacore AB, Uppsala, SW). CEA was biotinylated using the EZ-Link Sulfo-NHS-LC-Biotin kit (Pierce, Rockford, Ill.) and immobilized to a SA biosensor chip (Biacore Inc.) in HBS buffer. A series of increasing antibody concentrations (3.12, 6.25, 12.5, 25, 50, and 100 nM) were injected over a low density (175 RU) of the immobilized CEA-biotin for the association and dissociation phase, with regeneration by a single pulse of 6 M GuHCl. The data were analyzed by BIAevaluation (v3.0) software using the bivalent analyte model to calculate the KA=kₒₙ/koff. Antibody concentrations were determined by amino acid analysis.

[2] = target: T1, carcinoembryonic antigen (CEA); assay: SPR, Biacore 1000; biotinylated CEA on SA chip, antibody injected at 3.12-100 nM, bivalent analyte model; KA = kon/koff
Experimental: as §1

koff [1] | kon [1] | Ka [2] | Binder
3.01e-05 s⁻¹ | 330000 M⁻¹ s⁻¹ | 1.1e+10 M⁻¹ | humanized T84.66 antibody M5A (antibody, V domains shown, For the immunoreactivity assay the antibody was labelled with 131I; also called M5A mAb; 131I-M5A) VH: EVQLVESGGGLVQPGGSLRLSCAASGFNIKDTYMHWVRQAPGKGLEWVARIDPANGNSKYADSVKGRFTISADTSKNTAYLQMNSLRAEDTAVYYCAPFGYYVSDYAMAYWGQGTLVTVSS VL: DIQLTQSPSSLSASVGDRVTITCRAGESVDIFGVGFLHWYQQKPGKAPKLLIYRASNLESGVPSRFSGSGSRTDFTLTISSLQPEDFATYYCQQTNEDPYTFGQGTKVEIK
2.56e-05 s⁻¹ | 488000 M⁻¹ s⁻¹ | 1.9e+10 M⁻¹ | humanized T84.66 antibody M5B (antibody, V domains shown, Expressed in NS0 cells as an intact antibody with constant regions of a human IgG and a kappa light chain; For the immunoreactivity assay the antibody was labelled with 131I; also called M5B mAb) VH: EVQLVESGGGLVQPGGSLRLSCAASGFNIKDTYMHWVRQAPGKGLEWVARIDPANGNSKYVPKFQGRATISADTSKNTAYLQMNSLRAEDTAVYYCAPFGYYVSDYAMAYWGQGTLVTVSS VL: DIQLTQSPSSLSASVGDRVTITCRAGESVDIFGVGFLHWYQQKPGKAPKLLIYRASNLESGVPSRFSGSGSRTDFTLTISSLQPEDFATYYCQQTNEDPYTFGQGTKVEIK
